Measurements published in patent US20260001928A1 (CORTERIA PHARMACEUTICALS, priority 2022, published 2026).
Each block holds one binder with its values, some of them ahead of it. *1 amine or outer side, *2 acyl side, *3 side chain or, on linkers, in order; H or OH if unused. Where no end group is shown, it is not given here. Side-chain parts run from the residue outwards. [ ]: non-standard residue; d: D form. The star is where a group is joined. C16 diacid = O=C(O)CCCCCCCCCCCCCCC(=O)*; γGlu = O=C(O)[C@H](CCC(=O)[*:2])N[*:1]; NMeI = CC[C@H](C)[C@H](NC)C(=O)O; Abu = CC[C@H](N)C(=O)O; Dap = NC[C@H](N)C(=O)O

What was measured:
[1] = target: human corticotropin-releasing factor 2a (CRF2a receptor) (human), Q13324; assay: cell-based or functional assay
Chain of human corticotropin-releasing factor 2a (CRF2a receptor) (human), Q13324 (Q13324 20-411): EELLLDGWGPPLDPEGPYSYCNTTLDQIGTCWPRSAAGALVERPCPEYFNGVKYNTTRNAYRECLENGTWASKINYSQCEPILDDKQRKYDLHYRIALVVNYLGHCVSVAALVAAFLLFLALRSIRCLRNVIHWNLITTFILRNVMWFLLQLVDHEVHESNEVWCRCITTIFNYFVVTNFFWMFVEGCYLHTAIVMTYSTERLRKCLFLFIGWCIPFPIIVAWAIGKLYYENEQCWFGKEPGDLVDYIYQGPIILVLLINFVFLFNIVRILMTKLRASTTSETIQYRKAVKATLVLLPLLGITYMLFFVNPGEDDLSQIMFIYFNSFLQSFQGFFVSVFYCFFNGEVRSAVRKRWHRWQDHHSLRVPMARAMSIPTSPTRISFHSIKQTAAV

[2] = target: T1, CRF1R receptor (UniProt P34998 24-415, limits assumed); assay: cell-based or functional assay
T1 sequence (looked up): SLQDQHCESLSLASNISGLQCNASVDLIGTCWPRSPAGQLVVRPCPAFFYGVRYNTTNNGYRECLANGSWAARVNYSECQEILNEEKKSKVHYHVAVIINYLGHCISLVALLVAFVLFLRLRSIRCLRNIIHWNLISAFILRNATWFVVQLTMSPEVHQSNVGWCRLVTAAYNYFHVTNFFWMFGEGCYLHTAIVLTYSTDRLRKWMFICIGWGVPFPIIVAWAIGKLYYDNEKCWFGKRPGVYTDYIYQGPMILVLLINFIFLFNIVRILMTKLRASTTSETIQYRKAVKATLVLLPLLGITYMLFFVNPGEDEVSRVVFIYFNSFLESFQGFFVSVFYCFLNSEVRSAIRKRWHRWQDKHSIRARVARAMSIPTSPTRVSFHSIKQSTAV

EC50 [nM] (cAMP) [1]: 0.09 nM
Emax (% I) [2]: 3%
B1: SEQ ID NO 69 (peptide)
peptide: [NMeI]VLSLD[dV]PIKLK([γGlu-C16 diacid])KILLEQEKQKKQREQAETN[Abu]QILAQV-NH2
modifications: N-terminus assumed
SMILES: CC[C@H](NC(=O)[C@H](CC(N)=O)NC(=O)[C@@H](NC(=O)[C@H](CCC(=O)O)NC(=O)[C@H](C)NC(=O)[C@H](CCC(N)=O)NC(=O)[C@H](CCC(=O)O)NC(=O)[C@H](CCCNC(=N)N)NC(=O)[C@H](CCC(N)=O)NC(=O)[C@H](CCCCN)NC(=O)[C@H](CCCCN)NC(=O)[C@H](CCC(N)=O)NC(=O)[C@H](CCCCN)NC(=O)[C@H](CCC(=O)O)NC(=O)[C@H](CCC(N)=O)NC(=O)[C@H](CCC(=O)O)NC(=O)[C@H](CC(C)C)NC(=O)[C@H](CC(C)C)NC(=O)[C@@H](NC(=O)[C@H](CCCCN)NC(=O)[C@H](CCCCNC(=O)CC[C@H](NC(=O)CCCCCCCCCCCCCCC(=O)O)C(=O)O)NC(=O)[C@H](CC(C)C)NC(=O)[C@H](CCCCN)NC(=O)[C@@H](NC(=O)[C@@H]1CCCN1C(=O)[C@H](NC(=O)[C@H](CC(=O)O)NC(=O)[C@H](CC(C)C)NC(=O)[C@H](CO)NC(=O)[C@H](CC(C)C)NC(=O)[C@@H](NC(=O)[C@@H](NC)[C@@H](C)CC)C(C)C)C(C)C)[C@@H](C)CC)[C@@H](C)CC)[C@@H](C)O)C(=O)N[C@@H](CCC(N)=O)C(=O)N[C@H](C(=O)N[C@@H](CC(C)C)C(=O)N[C@@H](C)C(=O)N[C@@H](CCC(N)=O)C(=O)N[C@H](C(N)=O)C(C)C)[C@@H](C)CC

EC50 [nM] (cAMP) [1]: 0.17 nM
Emax (% I) [2]: 0%
B2: SEQ ID NO 70 (peptide)
peptide: [NMeI]VLSLD[dV]PIKLK([γGlu-C16 diacid])KILLEQEKQKKQREQAETN[Dap]QILAQV-NH2
modifications: N-terminus assumed
SMILES: CC[C@H](C)[C@H](NC)C(=O)N[C@H](C(=O)N[C@@H](CC(C)C)C(=O)N[C@@H](CO)C(=O)N[C@@H](CC(C)C)C(=O)N[C@@H](CC(=O)O)C(=O)N[C@@H](C(=O)N1CCC[C@H]1C(=O)N[C@H](C(=O)N[C@@H](CCCCN)C(=O)N[C@@H](CC(C)C)C(=O)N[C@@H](CCCCNC(=O)CC[C@H](NC(=O)CCCCCCCCCCCCCCC(=O)O)C(=O)O)C(=O)N[C@@H](CCCCN)C(=O)N[C@H](C(=O)N[C@@H](CC(C)C)C(=O)N[C@@H](CC(C)C)C(=O)N[C@@H](CCC(=O)O)C(=O)N[C@@H](CCC(N)=O)C(=O)N[C@@H](CCC(=O)O)C(=O)N[C@@H](CCCCN)C(=O)N[C@@H](CCC(N)=O)C(=O)N[C@@H](CCCCN)C(=O)N[C@@H](CCCCN)C(=O)N[C@@H](CCC(N)=O)C(=O)N[C@@H](CCCNC(=N)N)C(=O)N[C@@H](CCC(=O)O)C(=O)N[C@@H](CCC(N)=O)C(=O)N[C@@H](C)C(=O)N[C@@H](CCC(=O)O)C(=O)N[C@H](C(=O)N[C@@H](CC(N)=O)C(=O)N[C@@H](CN)C(=O)N[C@@H](CCC(N)=O)C(=O)N[C@H](C(=O)N[C@@H](CC(C)C)C(=O)N[C@@H](C)C(=O)N[C@@H](CCC(N)=O)C(=O)N[C@H](C(N)=O)C(C)C)[C@@H](C)CC)[C@@H](C)O)[C@@H](C)CC)[C@@H](C)CC)C(C)C)C(C)C
